Data set [1] concerns the target T1, His6-BRD^Baz2B (bromodomain of human Baz2B, wild-type) (human, UniProt Q9UIF8 2054-2168, fluorescent label (Monolith NT Protein Labelling Kit RED-NHS)).
T1 construct: bromodomain (BRD) of human Baz2B, from plasmid pNIC28-Bsa4-BAZ2B-BRD; also called BAZ2B-BRD; source: E. coli BL21(DE3)-R3-pRARE2, purified (Ni-NTA, Sephadex 75)
T1 sequence: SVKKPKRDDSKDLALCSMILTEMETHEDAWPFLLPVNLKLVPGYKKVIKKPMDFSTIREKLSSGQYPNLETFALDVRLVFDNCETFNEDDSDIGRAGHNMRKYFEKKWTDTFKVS
Kind of data set: MST; 100 nM fluorescently labelled (RED-NHS) BRD^Baz2B, peptide (H3 or H3K14ac) titrated; MST buffer 150 mM Tris-HCl, 50 mM NaCl, 10 mM MgCl2, pH 7.6, 0.0025% Pluronic, 200 ng/ul BSA; 25 C, 20% MST power; at least triplicate. As to conditions: both partners purified.

The next data set deals with T2, BRD^Baz2B L2073V (human, UniProt Q9UIF8 2054-2168, L2073V, fluorescent label (Monolith NT Protein Labelling Kit RED-NHS)).
T2 construct: bromodomain (BRD) of human Baz2B with a cancer-associated point mutation, made on pNIC28-Bsa4-BAZ2B-BRD; Same limits as m1; mutation found in pancreatic cancer (COSMIC/ICGC); source: E. coli BL21(DE3)-R3-pRARE2, purified (Ni-NTA, Sephadex 75)
T2 sequence: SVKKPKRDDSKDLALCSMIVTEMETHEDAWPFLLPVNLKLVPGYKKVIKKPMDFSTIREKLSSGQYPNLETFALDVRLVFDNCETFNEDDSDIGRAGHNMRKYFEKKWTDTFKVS
The description is as above. Conditions: both partners purified.

In a further data set the target is T3, BRD^Baz2B K2098N (human, UniProt Q9UIF8 2054-2168, K2098N, fluorescent label (Monolith NT Protein Labelling Kit RED-NHS)).
T3 construct: bromodomain (BRD) of human Baz2B with a cancer-associated point mutation, made on pNIC28-Bsa4-BAZ2B-BRD; Same limits as m1; mutation found in multiple myeloma; source: E. coli BL21(DE3)-R3-pRARE2, purified (Ni-NTA, Sephadex 75)
T3 sequence: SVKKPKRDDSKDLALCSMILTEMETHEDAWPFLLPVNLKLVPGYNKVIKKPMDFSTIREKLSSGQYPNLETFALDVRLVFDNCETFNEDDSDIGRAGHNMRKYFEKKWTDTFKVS
The data set is described as above. As to conditions: both partners purified.

A further data set deals with T4, BRD^Baz2B L2127V (human, UniProt Q9UIF8 2054-2168, L2127V, fluorescent label (Monolith NT Protein Labelling Kit RED-NHS)).
T4 construct: bromodomain (BRD) of human Baz2B with a cancer-associated point mutation, made on pNIC28-Bsa4-BAZ2B-BRD; Same limits as m1; mutation found in breast cancer; source: E. coli BL21(DE3)-R3-pRARE2, purified (Ni-NTA, Sephadex 75)
T4 sequence: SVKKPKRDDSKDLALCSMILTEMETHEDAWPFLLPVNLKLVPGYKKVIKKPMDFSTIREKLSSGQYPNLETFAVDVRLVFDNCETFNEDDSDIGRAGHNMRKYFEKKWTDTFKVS
The description is as above. As to conditions: both partners purified.

The target in the next data set is T5, BRD^Baz2B T2138I (human, UniProt Q9UIF8 2054-2168, T2138I, fluorescent label (Monolith NT Protein Labelling Kit RED-NHS)).
T5 construct: bromodomain (BRD) of human Baz2B with a cancer-associated point mutation, made on pNIC28-Bsa4-BAZ2B-BRD; Same limits as m1; mutation found in multiple myeloma; source: E. coli BL21(DE3)-R3-pRARE2, purified (Ni-NTA, Sephadex 75)
T5 sequence: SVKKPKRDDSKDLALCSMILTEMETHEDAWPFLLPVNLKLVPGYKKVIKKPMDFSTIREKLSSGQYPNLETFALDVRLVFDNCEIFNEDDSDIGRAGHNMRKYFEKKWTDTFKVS
The data set is described as above. As to conditions: both partners purified.

In the next data set the target is T6, BRD^Baz2B F2139C (human, UniProt Q9UIF8 2054-2168, F2139C, fluorescent label (Monolith NT Protein Labelling Kit RED-NHS)).
T6 construct: bromodomain (BRD) of human Baz2B with a cancer-associated point mutation, made on pNIC28-Bsa4-BAZ2B-BRD; Same limits as m1; mutation found in endometrial cancer; source: E. coli BL21(DE3)-R3-pRARE2, purified (Ni-NTA, Sephadex 75)
T6 sequence: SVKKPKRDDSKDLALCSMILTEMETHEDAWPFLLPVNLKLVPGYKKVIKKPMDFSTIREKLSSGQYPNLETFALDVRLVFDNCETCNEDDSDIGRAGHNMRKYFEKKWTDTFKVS
The description is as above. Conditions: both partners purified.

In a further data set the target is T7, BRD^Baz2B D2143N (human, UniProt Q9UIF8 2054-2168, D2143N, fluorescent label (Monolith NT Protein Labelling Kit RED-NHS)).
T7 construct: bromodomain (BRD) of human Baz2B with a cancer-associated point mutation, made on pNIC28-Bsa4-BAZ2B-BRD; Same limits as m1; mutation found in breast invasive carcinoma; source: E. coli BL21(DE3)-R3-pRARE2, purified (Ni-NTA, Sephadex 75)
T7 sequence: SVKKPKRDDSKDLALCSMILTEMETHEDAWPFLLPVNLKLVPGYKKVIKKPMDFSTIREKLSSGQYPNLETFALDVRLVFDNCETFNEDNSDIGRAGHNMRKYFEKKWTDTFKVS
The data set is described as above. As to conditions: both partners purified.

Data set [2] has as its target T8, TAM-AT1-AT2 Baz2B (Homo sapiens, UniProt Q9UIF8 721-884).
T8 sequence: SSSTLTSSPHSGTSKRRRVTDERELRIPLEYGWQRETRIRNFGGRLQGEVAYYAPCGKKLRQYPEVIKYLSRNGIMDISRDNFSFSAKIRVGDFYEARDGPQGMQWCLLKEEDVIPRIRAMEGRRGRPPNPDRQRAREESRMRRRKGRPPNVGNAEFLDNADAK
Nature of the data set: MST; EMSA: 20 mM HEPES pH 7.5, 30 mM KCl, 1 mM EDTA, 10 mM (NH4)2SO4, 1 mM DTT, 4 C, 10 nM probe; MST: same plus 0.1 ug/ml BSA, 5 nM probe, 25 C; GST-AT-hook and bromodomain EMSA as in cited refs. Conditions: protein: recombinant; tags: His6; label: 5' Cy5.

The target of data set [3] is T8, TAM-AT1-AT2 Baz2B. Kind of data set: EMSA; EMSA: 20 mM HEPES pH 7.5, 30 mM KCl, 1 mM EDTA, 10 mM (NH4)2SO4, 1 mM DTT, 4 C, 10 nM probe; MST: same plus 0.1 ug/ml BSA, 5 nM probe, 25 C; GST-AT-hook and bromodomain EMSA as in cited refs. Conditions: protein: recombinant; tags: His6; label: 5' Cy5. (In general: A gel shift assay detects complexes by their altered migration in electrophoresis.)

B1: H3K14ac peptide (Ac-TARKSTGGK(ac)APRKQL-NH2) (peptide)
peptide: Ac-TARKSTGGK(Ac)APRKQL-NH2
notes: N-terminal tail of histone H3, residues 6-20; also called acetylated H3 tail peptide; acetylated at K14 (K14ac) N-terminal H3 histone tail peptide; source: synthetic peptide, bought: alta Bioscience
For the molecule B1, the Kd – broadly, the free concentration of one partner at which half of the binding sites on the other are occupied at equilibrium, for simple one-to-one binding – came to 16 µM in data set [1]; 78 µM with BRD^Baz2B L2073V; 24 µM with BRD^Baz2B K2098N; 30 µM with BRD^Baz2B L2127V; 94 µM with BRD^Baz2B T2138I; 20 µM with BRD^Baz2B F2139C. In the data set with BRD^Baz2B D2143N, binding was put at a Kd of 133 µM.
Take GGGGGGUCAUUUUUGGGGAAACCCUGUCUCUUUCC (structured_RNA) [pRNAmini]: the dissociation constant (Kd) with TAM-AT1-AT2 Baz2B [2] was 288 nM; with TAM-AT1-AT2 Baz2B [3], 136 nM.

The values above are taken from PMC10783490, “Biochemical and cellular insights into the Baz2B protein, a non-catalytic subunit of the chromatin remodeling complex” (Nucleic Acids Research, 2023).
